The results in this text go back to patent US20250236663A1 (NEURACLE SCIENCE, published 2025).

The target of test [1] is T1, FAM19A5 fragment 5 mutant peptide F5-4 (#4) (human).
T1 construct: The entry already carries the alanine substitution and Ser for Cys; also called mutant peptide #4
As to the kind of experiment: ELISA on alanine-substituted F5 peptides (I16 to alanine). How it is done:
Overlapping peptide fragments (F1-F6, see FIG. 9) of the human FAM19A5 protein were synthesized and conjugated to BSA. Binding of the different anti-FAM19A5 antibodies to the BSA-conjugated peptide fragments F1-F6 was determined by Western blot analysis or ELISA assay. For the Western blot analysis, BSA-conjugated FAM19A5 fragments F1-F6 were separated by SDS polyacrylamide gel electrophoresis and transferred to a nitrocellulose membrane by the standard procedure. The membrane was incubated with the anti-FAM19A5 antibody (e.g., 1-65, 2 μg/ml, 1-65-scFv-rabbit Fc-SSS), and the antigen-antibody complexes were detected with the appropriate secondary antibody conjugated with horse-radish peroxidase (anti-rabbit IgG (Fc specific)-HRP, 1:4000 dilution). For the ELISA assay, the following protocol was used. FAM19A5 fragment F1-F6 (diluted to 1 μg/mL in 50 mM carbonate buffer (Biosesang) or to 20 μg/mL for high concentration analysis) were used to coat the wells of 96-well immuno plates (Thermo Scientific) (100 μL/well) overnight at 4° C. and then subsequently washed twice in 1×PBS. The plates were then blocked with the blocking buffer (100 μL/well) for 1 hour at room temperature. […] The absorption value of each of the wells was detected at 492 nm using a 96-well microplate reader (Molecular Device). […]

Test [2] has as its target T2, FAM19A5 fragment 5 mutant peptide F5-1 (#1) (human).
T2 construct: The entry already carries the alanine substitution and Ser for Cys; also called mutant peptide #1
T2 peptide: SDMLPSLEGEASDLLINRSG
As to the kind of experiment: ELISA on the coated F5 mutant peptide. How it is done:
(§1) Overlapping peptide fragments (F1-F6, see FIG. 9) of the human FAM19A5 protein were synthesized and conjugated to BSA. Binding of the different anti-FAM19A5 antibodies to the BSA-conjugated peptide fragments F1-F6 was determined by Western blot analysis or ELISA assay. For the Western blot analysis, BSA-conjugated FAM19A5 fragments F1-F6 were separated by SDS polyacrylamide gel electrophoresis and transferred to a nitrocellulose membrane by the standard procedure. The membrane was incubated with the anti-FAM19A5 antibody (e.g., 1-65, 2 μg/ml, 1-65-scFv-rabbit Fc-SSS), and the antigen-antibody complexes were detected with the appropriate secondary antibody conjugated with horse-radish peroxidase (anti-rabbit IgG (Fc specific)-HRP, 1:4000 dilution). For the ELISA assay, the following protocol was used. FAM19A5 fragment F1-F6 (diluted to 1 μg/mL in 50 mM carbonate buffer (Biosesang) or to 20 μg/mL for high concentration analysis) were used to coat the wells of 96-well immuno plates (Thermo Scientific) (100 μL/well) overnight at 4° C. and then subsequently washed twice in 1×PBS. The plates were then blocked with the blocking buffer (100 μL/well) for 1 hour at room temperature. During the 1-hour incubation, the relevant anti-FAM19A5 antibodies were diluted to 1 μg/mL (or 20 μg/mL for high concentration analysis) in the diluent buffer. Once the plates were washed (2× using 1×PBS), the diluted anti-FAM19A5 antibodies were added to the appropriate wells, and the plates were incubated at room temperature for 1 hour. The plates were subsequently washed for a total of five times using the washing buffer. Next, the ODP substrate (prepared by dissolving one ODP tablet (O-phenylenediamine Dihydrochloride, Thermo) into 9 mL of sterilized deionized water and 1 mL of 10× stable Peroxide Stable buffer (Theromo)) was added to each of the wells, and the color change reaction was allowed to occur for 10 minutes. This reaction was stopped by adding 100 μL of 2N H2SO4 (Daejung) to the wells. The absorption value of each of the wells was detected at 492 nm using a 96-well microplate reader (Molecular Device).
(§2) Next, to identify the specific amino acid residues within the epitope fragment F5 that the 1-65 and P2-C12 antibodies bind to, different amino acid residues of the F5 fragment were replaced with alanine as shown in Table 9 (below).
(In an ELISA, binding on a coated surface is turned into a signal by an enzyme label.)

In test [3] the target is T3, FAM19A5 fragment 5 mutant peptide F5-2 (#2) (human).
T3 construct: The entry already carries the alanine substitution and Ser for Cys; also called mutant peptide #2
T3 sequence (peptide, as listed by the source mutant): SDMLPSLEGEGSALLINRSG
As to the kind of experiment: ELISA on the coated F5 mutant peptide. How it is done:
as §1, §2

Test [4] concerns the target T4, FAM19A5 fragment 5 mutant peptide F5-3 (#3) (human).
T4 construct: The entry already carries the alanine substitution and Ser for Cys; also called mutant peptide #3
As to the kind of experiment: ELISA on the coated F5 mutant peptide. How it is done: as §1, §2

The target in test [5] is T1, FAM19A5 fragment 5 mutant peptide F5-4 …. As to the kind of experiment: ELISA on the coated F5 mutant peptide. How it is done: as §1, §2
The target of test [6] is T5, FAM19A5 fragment 5 mutant peptide F5-5 (#5) (human).
T5 construct: The entry already carries the alanine substitution and Ser for Cys; also called mutant peptide #5
T5 peptide: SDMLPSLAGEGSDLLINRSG
As to the kind of experiment: ELISA on the coated F5 mutant peptide. The method, then: as §1, §2

For test [7], the target named is T6, FAM19A5 fragment 5 mutant peptide F5-6 (#6) (human).
T6 construct: The entry already carries the alanine substitution and Ser for Cys; also called mutant peptide #6
T6 sequence (peptide, as listed by the source mutant): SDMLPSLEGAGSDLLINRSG
In words: ELISA on the coated F5 mutant peptide. How it is done: as §1, §2

In test [8] the target is T7, FAM19A5 fragment 5 mutant peptide F5-7 (#7) (human).
T7 construct: The entry already carries the alanine substitution and Ser for Cys; also called mutant peptide #7
T7 sequence (peptide, as listed by the source mutant): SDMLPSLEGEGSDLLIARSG
As to the kind of experiment: ELISA on the coated F5 mutant peptide. How it is done:
as §1, §2

For test [9], the target named is T8, FAM19A5 fragment 5 mutant peptide F5-8 (#8) (human).
T8 construct: The entry already carries the alanine substitution and Ser for Cys; also called mutant peptide #8
T8 peptide: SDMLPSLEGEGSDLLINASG
As to the kind of experiment: ELISA on the coated F5 mutant peptide. The method, then:
as §1, §2

T4 sequence (peptide, as listed by the source mutant): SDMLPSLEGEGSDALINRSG
T1 sequence (peptide, as listed by the source mutant): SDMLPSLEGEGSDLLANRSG

B1: chimeric anti-FAM19A5-IgG2/4 monoclonal antibody (1-65) (antibody, V domains shown)
VH: AVTLDESGGGLQTPGGALSLVCKASGFTFSSYQMGWVRQAPGKGLEWVGVINKSGSDTSYGSAVKGRATISRDNGQSTVRLQLNNLRAEDTGTYFCAKGSASYITAATIDAWGHGTEVIVSS
VL: ALTQPSSVSANPGETVKITCSGGGSSGYGYGWYQQKSPSSAPLTVIYWNDKRPSDIPSRFSGSKSGSTHTLTITGVQAEDEAVYFCGNDDYSSDSGYVGVFGAGTTLTVL
notes: Chicken-derived variable domains; also called anti-FAM19A5 antibody 1-65; Anti-FAM19A5 (1-65)
As for B1, the binding result in test [1], in [3], in [4] and in test [9] was “no binding” throughout. The “O.D (492nm)” value in test [2] was determined as 1.5; in [3], 0.155; in [4], 0.15; in [5], 0.688; in test [6], 1.57; in test [7], 1.41. Besides, the entries for the “O.D (492nm)” value in [8] and in test [9] were 1.64 and 0.181, respectively.
